Results as given in patent publication US20230270877A1, “Combination Therapy” (Seagen Inc., priority 2020, published 2023).

What was measured:
[1] = system: Farage cells; assay type: in vivo; settings: single agent, SEA-CD70 3 mg/kg or SGN-35 1 mg/kg
[2] = system: MM1S MM cells; test: Disseminated MM xenograft survival model (MM1S); assay type: in vivo, SCID animals; settings: 0.1 mg/kg SEA-BCMA weekly x5 IP and/or 0.01 mg/kg SGN-CD48A once IP; N=8/group; FIG. 21A
Method: MM1S MM cells were injected IV into SCID animals, which contain active innate immune effector cells to mediate ADCP and ADCC. Seven days post implant, dosing was initiated with 0.1 mg/kg SEA-BCMA and/or 0.01 mg/kg SGN-CD48A, and animals were monitored for survival. SEA-BCMA was dosed weekly for 5 weeks IP and SGN-CD48A was dosed once IP. Animals were followed for 160 days for survival (N=8/group). By day 51, all untreated animals had been humanely euthanized according to IACUC protocols.

[3] = target: T1, human FcγRIIIa (Homo sapiens, UniProt P08637); test: FcγR binding by flow cytometry on transfected CHO cells; settings: FIG. 11B-D
T1 construct: expressed in transfected cells; host or cells: CHO cells
Method: (§1) CHO cells were incubated with increasing concentrations of antibodies and a secondary antibody used to assess binding as monitored by flow cytometry.
(§2) For each cell line, 50 million cells were washed once in 50 mL of PBS. Cells were counted again and resuspended at 2.2 million cells/mL in BD stain buffer. Cells were plated in a 96-well round bottom plate at 0.1 mL of cells per well.
(§3) Antibody solutions were diluted to make the following final concentrations: 3 mg/mL, 1 mg/mL, 0.3 mg/mL, 0.1 mg/mL, 0.03 mg/mL, 0.01 mg/mL, 0.003 mg/mL, 0.001 mg/mL, 0.0003 mg/mL. Each antibody solution was diluted at 10×(i.e., […] of media) to produce the following concentrations: 300, 100, 30, 10, 3, 1, […] μg/ml. Media was removed from the cells and the cells were washed with media. 100 μL of antibody solution was added to each well. Antibody solutions were added with decreasing concentrations in the vertical direction. […]
(§4) Next, PE conjugated anti-human IgG Fc antibody was prepared (1/50 dilution of 1 mg/ml concentration=[…] saturating concentration) in BD stain buffer. […] Cells were resuspended in PBS+1% paraformaldehyde and kept at 4° C. until they were analyzed by flow cytometry. Samples were analyzed using the Attune flow cytometer. […]

[4] = target: T2, human FcγRIIb (Homo sapiens, UniProt P31994); test: as above; settings: FIG. 11B-D
T2 construct: expressed in transfected cells; host or cells: CHO cells
T2 sequence (P31994 43-310): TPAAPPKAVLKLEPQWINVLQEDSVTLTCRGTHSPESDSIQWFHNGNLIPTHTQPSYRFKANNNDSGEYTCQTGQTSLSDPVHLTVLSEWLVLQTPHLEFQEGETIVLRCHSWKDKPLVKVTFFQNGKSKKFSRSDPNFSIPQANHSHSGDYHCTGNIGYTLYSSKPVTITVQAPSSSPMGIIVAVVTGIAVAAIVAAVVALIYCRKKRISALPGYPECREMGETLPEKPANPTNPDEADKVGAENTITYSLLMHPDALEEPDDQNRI
Method: as §1, §2, §3, §4

T1 sequence (P08637 17-254): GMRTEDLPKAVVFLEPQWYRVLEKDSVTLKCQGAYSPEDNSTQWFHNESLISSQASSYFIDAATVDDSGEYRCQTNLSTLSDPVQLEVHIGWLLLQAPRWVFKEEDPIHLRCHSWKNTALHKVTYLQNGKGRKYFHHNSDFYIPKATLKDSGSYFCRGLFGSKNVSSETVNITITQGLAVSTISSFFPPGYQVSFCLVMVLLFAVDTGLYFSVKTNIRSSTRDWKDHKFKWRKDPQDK

B1: SEA-CD70: nonfucosylated antibody targeting the CD70 antigen; VH and VL of SEQ ID NOs: 41 and 42 (antibody, V domains shown)
VH: QVQLVQSGAEVKKPGASVKVSCKASGYTFTNYGMNWVRQAPGQGLKWMGWINTYTGEPTYADAFKGRVTMTRDTSISTAYMELSRLRSDDTAVYYCARDYGDYGMDYWGQGTTVTVSS
VL: DIVMTQSPDSLAVSLGERATINCRASKSVSTSGYSFMHWYQQKPGQPPKLLIYLASNLESGVPDRFSGSGSGTDFTLTISSLQAEDVAVYYCQHSREVPWTFGQGTKVEIK
modifications: nonfucosylated; SEA-CD70 heavy chain variable region; SGN-CD70 light chain variable region
Q: How did the “day at which tumors reached an average 5 fold increase of original size” value ([1]; day post implant, untreated 28.5) turn out when B1 was run?
A: Its value is 34.5 days.

Q: And the “days post treatment at which tumors reached an average 5 fold increase” value ([1]; untreated 9.5)?
A: Its value is 15.5 days post treatment.

B2: SEA-BCMA: nonfucosylated antibody targeting B-cell maturation antigen (BCMA); VH and VL of SEQ ID NOs: 45 and 46 (antibody, V domains shown)
VH: QVQLVQSGAEVKKPGASVKLSCKASGYTFTDYYIHWVRQAPGQGLEWIGYINPNSGYTNYAQKFQGRATMTADKSINTAYVELSRLRSDDTAVYFCTRYMWERVTGFFDFWGQGTMVTVSS
VL: DIQMTQSPSSVSASVGDRVTITCLASEDISDDLAWYQQKPGKAPKVLVYTTSSLQSGVPSRFSGSGSGTDFTLTISSLQPEDFATYFCQQTYKFPPTFGGGTKVEIK
modifications: nonfucosylated; SGN-BCMA heavy chain variable region; SGN-BCMA light chain variable region
Q: With B2 as the molecule, how does the “animals alive by day 160” value [2] read?
A: The value was “zero”.

B3: SEA-CD40: nonfucosylated, humanized version of murine S2C6 anti-CD40; VH and VL of SEQ ID NOs: 28 and 29 (antibody, V domains shown)
VH: EVQLVESGGGLVQPGGSLRLSCAASGYSFTGYYIHWVRQAPGKGLEWVARVIPNAGGTSYNQKFKGRFTLSVDNSKNTAYLQMNSLRAEDTAVYYCAREGIYWWGQGTLVTVSS
VL: DIQMTQSPSSLSASVGDRVTITCRSSQSLVHSNGNTFLHWYQQKPGKAPKLLIYTVSNRFSGVPSRFSGSGSGTDFTLTISSLQPEDFATYFCSQTTHVPWTFGQGTKVEIK
modifications: nonfucosylated; VH of SEA-CD40; VL of SEA-CD40
Q: How did the “affinity for FcγRIIIa (rank among CD40 antibodies tested)” value [3] turn out when B3 was run?
A: The value was “highest affinity”.

Q: And the “affinity for FcγRIIb (rank among CD40 antibodies tested)” value [4]?
A: The value was “lowest affinity”.
